According to IntAct's records for PubMed 21934712:

Target: scc4_human MAU2 (UniProt Q9Y6X3)
Sequence of UniProt Q9Y6X3 (Q9Y6X3 whole entry): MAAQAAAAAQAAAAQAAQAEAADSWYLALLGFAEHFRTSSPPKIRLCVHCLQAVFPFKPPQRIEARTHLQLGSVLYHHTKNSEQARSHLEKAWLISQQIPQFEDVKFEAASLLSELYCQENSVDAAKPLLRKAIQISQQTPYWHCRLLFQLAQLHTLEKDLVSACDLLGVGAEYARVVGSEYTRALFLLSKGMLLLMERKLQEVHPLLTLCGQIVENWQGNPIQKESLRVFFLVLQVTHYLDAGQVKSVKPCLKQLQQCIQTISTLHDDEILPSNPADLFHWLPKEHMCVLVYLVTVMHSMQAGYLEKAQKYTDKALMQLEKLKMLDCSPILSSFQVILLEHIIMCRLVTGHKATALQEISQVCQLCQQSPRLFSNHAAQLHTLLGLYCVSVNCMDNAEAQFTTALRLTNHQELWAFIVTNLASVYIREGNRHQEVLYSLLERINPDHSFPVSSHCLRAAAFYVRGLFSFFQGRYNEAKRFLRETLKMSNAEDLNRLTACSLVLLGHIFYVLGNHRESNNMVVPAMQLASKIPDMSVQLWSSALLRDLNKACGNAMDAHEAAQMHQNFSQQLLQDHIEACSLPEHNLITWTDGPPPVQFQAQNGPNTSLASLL

Substance | effect of a mutation on the interaction
Nipped-B-like protein (Homo sapiens), Q6KC79 G15R | decreasing interaction strength
Nipped-B-like protein (Homo sapiens), Q6KC79 P29Q | decreasing interaction strength
